Here are results for nine molecules from US20110104157A1, “LIVER CANCER DRUG” (Chugai Seiyaku Kabushiki Kaisha, priority 2008, published 2011).

In one data set the test system is liver cancer. To be noted: liver cancer patients, phase II; cited from earlier work.
The nature of data set [1]: thermal denaturation midpoint temperature (Tm) by DSC, Reference Example 3. To be noted: Fab domain peak, sodium acetate buffer pH 6.0 with 150 mmol/L NaCl, about 1 K/minute. Type of data set: physicochemical. (DSC measures the heat that a sample takes up or gives off during a temperature scan.)
Procedure: The thermal denaturation midpoint temperature (Tm) was determined by the top of the denaturation peak in the thermogram (Cp versus T) obtained after heating the test sample solution at a constant programmed heating rate. The Tm value of the humanized H0L0 antibody was measured using a sample solution for DSC measurement prepared as described in the following. The antibody solution (corresponding to 50 to 100 μg) filled in a dialysis membrane was first dialyzed for 24 hours against a dialysis external solution of 20 mol/L sodium acetate buffer solution (pH 6.0) containing 150 mmol/L sodium chloride. Subsequently, the sample solution was adjusted its antibody concentration of 50 to 100 μg/mL with dialysis external solution and used as the sample solution for DSC measurement.
A suitable DSC instrument, for example, DSC-II (Calorimetry Sciences Corporation), is used for this experiment. The sample solution prepared as described above and the reference solution (dialysis external solution) were thoroughly degassed, and each of these test specimens was placed in a calorimeter cell and was thermally equilibrated at 40° C. A DSC scan was then run from 40° C. to 100° C. at a scan rate of approximately 1 K/minute. The results of this measurement are given as the top of the denaturation peak as a function of temperature.
A further data set deals with liver cancer cells. To be noted: against liver cancer cells; see WO 2006/006693; cited from earlier work.
Data set [2] concerns the target T1, soluble GPC3 core polypeptide (Homo sapiens (Human), UniProt P51654 25-563).
T1 construct: It was immobilised on the ELISA plate at 1 ug/mL; also called glypican 3; antigen glypican 3
The experiment in a line: competitive ELISA, soluble GPC3 core polypeptide on plate, competitor biotinylated H0L0. The protocol: 100 μL of the soluble GPC3 core polypeptide (SEQ ID NO: 36) at 1 μg/mL was added to each well of a 96-well plate. The soluble GPC3 core polypeptide was immobilized on the plate by allowing the plate to stand overnight at 4° C. The soluble GPC3 core polypeptide immobilized on the plate was washed 3 times with a washing buffer using a Skan WASHER400 (Molecular Devices); and blocked with 200 μL blocking buffer at 4° C. for at least 30 min. The blocked plate on which soluble GPC3 core polypeptide was immobilized was then washed 3 times with washing buffer using the Skan WASHER400. […] The plate was left stand for 1 hour at room temperature, then washed 5 times with washing buffer using the Skan WASHER400 (Molecular Devices). 100 μL goat anti-streptavidin alkaline phosphatase (ZYMED), diluted 20,000× with substrate buffer, was added to each well, and the resulting plate was left stand for 1 hour at room temperature, and then washed 5 times with washing buffer using the Skan WASHER400. Phosphatase Substrate (Sigma) was prepared at 1 mg/mL in the substrate buffer, added at 100 μL, per well for 1 hour. The absorbance at 405 nm of the reaction solution in each well was measured using a Benchmark Plus (BIO-RAD), with the control absorbance at 655 nm.
In general terms: An ELISA detects its analyte on a solid surface through an enzyme-linked reagent.

Data set [3] concerns the target soluble GPC3 core polypeptide (Homo sapiens, UniProt P51654, S495A/S509A). Kind of data set: competitive ELISA of binding activity against biotinylated humanized H0L0 antibody. To be noted: for antigen binding activity compared with humanized H0L0 antibody: Reference Example 3. The protocol: The humanized H0L0 antibody and its point mutation-modified antibodies purified in (1) was evaluated by competitive ELISA. 100 μL of the soluble GPC3 core polypeptide (SEQ ID NO: 36) at 1 μg/mL was added to each well of a 96-well plate. The soluble GPC3 core polypeptide was immobilized on the plate by allowing the plate to stand overnight at 4° C. The soluble GPC3 core polypeptide immobilized on the plate was washed 3 times with a washing buffer using a Skan WASHER400 (Molecular Devices); and blocked with 200 μL blocking buffer at 4° C. for at least 30 min. The blocked plate on which soluble GPC3 core polypeptide was immobilized was then washed 3 times with washing buffer using the Skan WASHER400. Subsequently, each well of the plate received 200 μL of a mixture containing 100 μL of biotinylated humanized H0L0 antibody (final concentration=0.3 μg/mL) and 100 μL of the humanized H0L0 antibody or its point mutation-modified antibody (at various concentrations). The humanized H0L0 antibody was biotinylated using a Biotin Labeling Kit (Roche) according to the instructions provided with the kit. The plate was left stand for 1 hour at room temperature, then washed 5 times with washing buffer using the Skan WASHER400 (Molecular Devices). 100 μL goat anti-streptavidin alkaline phosphatase (ZYMED), diluted 20,000× with substrate buffer, was added to each well, and the resulting plate was left stand for 1 hour at room temperature, and then washed 5 times with washing buffer using the Skan WASHER400. Phosphatase Substrate (Sigma) was prepared at 1 mg/mL in the substrate buffer, added at 100 μL, per well for 1 hour. The absorbance at 405 nm of the reaction solution in each well was measured using a Benchmark Plus (BIO-RAD), with the control absorbance at 655 nm.
The binding activity to the antigen glypican 3 of each point mutation pI modified antibody was measured using the method described in Reference Example 3.

Another data set deals with HuH-7 xenograft. The experiment in a line: Example 2 antitumor effect, HuH-7 xenograft mouse model (hGC33 and Sorafenib). Type of data set: in vivo. To be noted: hGC33 5 mg/kg i.v. weekly x3 alone or Sorafenib 80 mg/kg oral 5 times per week x3 alone. The protocol: HepG2 cells or HuH-7 cells (5×10^5 cells) dispersed in 50% Matrigel (Becton Dickinson) were subcutaneously implanted. When the tumor volume reached 250 mm^3, the mice were divided into groups and administration commenced.
The asterisks in the figures indicate that P<0.05, based on the Dunnett's test. […] The open circles indicate the change in body weight in the group given the vehicle. […] The open squares indicate the change in body weight in the group given only Sorafenib in a dose of 80 mg/kg. […]

Data set [4] is described as follows: Tm of Fabs by VP-DSC, Reference Example 4. Type of data set: physicochemical. To be noted: PBS, 20° C. to 115° C., about 4K/min. The protocol: The Tm values of Fabs obtained from Hd1.8Ld1.6 antibody and pH7pL16 antibody were measured with VP-DSC (Micro Cal) using the method similar to Reference Example 3. In this experiment, PBS was used as a dialysis solution, and the antibody concentration in the test solution for DSC measurement was adjusted to 25-100 μg/ml. DSC scanning was set from 20° C. to 115° C. at the scanning rate of about 4K/min, with the reference solution (dialysis solution) and DSC measurement test solution. The thermal denaturation midpoint temperature of the Fabs of the Hd1.8Ld1.6 antibody and pH7pL16 antibody was 77.5 and 74.7° C., respectively.

Data set [5] in a line: pI value by electrophoresis with PhastGel IEF 4-6.5, Reference Example 4. The format is physicochemical. To be noted: for pI value: PhastGel IEF 4-6.5. The protocol:
The pI values of the Hd1.8Ld1.6 antibody and pH7pL16 antibody were measured by electrophoresis with PhastGel IEF 4-6.5 (GE Healthcase) using the method described in Reference Example 3 or similar method.

A short description of data set [6]: pI value by isoelectric electrophoresis, Reference Example 3. Type of data set: physicochemical. The protocol: The pI value of each antibody was calculated based on the analysis by isoelectric electrophoresis. Electrophoresis was carried out as described in the following. Using a Phast-System Cassette (Amersham Bioscience), Phast-Gel Dry IEF (Amersham Bioscience) gel was swollen for about 60 minutes with a swelling solution with the composition given below.
• 1.5 mL 10% glycerol • 100 μL Pharmalyte 8-10.5 for IEF (Amersham Bioscience)
• 1.5 mL purified water • 20 μL Pharmalyte 8-10.5 for IEF (Amersham Bioscience) • 80 μL Pharmalyte 5-8 for IEF (Amersham Bioscience)
Approximately 0.5 μg antibody was loaded on the swollen gel and isoelectric electrophoresis was run using the PhastSystem (Amersham Bioscience) controlled by the program described below. The sample was added to the gel at Step 2 of this program. A Calibration Kit for pI (Amersham Bioscience) was used for the pI markers.
After electrophoresis, the gel was fixed with 20% TCA and silver staining was then carried out using a Silver Staining Kit, Protein (Amersham Bioscience) according to the instructions provided with the kit. After staining, the isoelectric point of each antibody (test sample) was calculated based on the already known isoelectric points of the pI markers.

Sequence of soluble GPC3 core polypeptide (Homo sapiens, UniProt P51654, S495A/S509A) (P51654 with tags, fused parts or gaps S495A/S509A): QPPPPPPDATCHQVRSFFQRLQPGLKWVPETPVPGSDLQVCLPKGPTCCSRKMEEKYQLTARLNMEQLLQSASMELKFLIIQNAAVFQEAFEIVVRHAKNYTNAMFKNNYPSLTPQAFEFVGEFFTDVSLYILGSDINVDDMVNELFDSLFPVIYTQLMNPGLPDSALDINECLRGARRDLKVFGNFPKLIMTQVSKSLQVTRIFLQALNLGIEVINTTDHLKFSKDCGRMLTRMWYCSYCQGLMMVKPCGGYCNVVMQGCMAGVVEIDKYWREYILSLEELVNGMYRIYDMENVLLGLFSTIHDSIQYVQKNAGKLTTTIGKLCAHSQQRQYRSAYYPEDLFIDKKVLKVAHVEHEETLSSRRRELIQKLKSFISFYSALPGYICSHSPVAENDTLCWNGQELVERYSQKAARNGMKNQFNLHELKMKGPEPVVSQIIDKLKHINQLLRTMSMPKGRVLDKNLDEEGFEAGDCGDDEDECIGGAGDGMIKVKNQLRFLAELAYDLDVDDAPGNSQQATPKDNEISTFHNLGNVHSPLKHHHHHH
T1 sequence (P51654 other isoform, or with tags, fused parts or gaps limits assumed): as the sequence (P51654 with tags, fused parts or gaps S495A/S509A) above

For the molecule `CS(=O)(=O)CCNCc1ccc(-c2ccc3ncnc(Nc4ccc(OCc5cccc(F)c5)c(Cl)c4)c3c2)o1` [lapatinib], in the data set on liver cancer, the rate of response is 0% and the time to progression is reported as 1.8 months. With Synagis: example of existing antibodies, the “Tm value (thermal denaturation midpoint temperature)” value in data set [1] stood at 85.4 °C.

B1: GC33: Mouse anti-human glypican 3 monoclonal antibody, clone GC33, WO 2006/006693; variable regions SEQ ID NOs: 1 and 2 (antibody, V domains shown)
VH: QVQLQQSGAELVRPGASVKLSCKASGYTFTDYEMHWVKQTPVHGLKWIGALDPKTGDTAYSQKFKGKATLTADKSSSTAYMELRSLTSEDSAVYYCTRFYSYTYWGQGTLVTVSA
VL: DVVMTQTPLSLPVSLGDQASISCRSSQSLVHSNGNTYLHWYLQKPGQSPKLLIYKVSNRFSGVPDRFSGSGSGTDFTLKISRVEAEDLGVYFCSQNTHVPPTFGSGTKLEIK
modifications: Modified antibody
For B1, in the data set on liver cancer cells, the “ADCC and CDC activities” value was “greater”.

B2: H15L4 antibody (antibody, V domains shown)
VH: QVQLVQSGAEVKKPGASVKVSCKASGYTFTDYEMHWIRQPPGQGLEWIGAIDPKTGDTAYSQKFKGRVTLTADKSTSTAYMELSSLTSEDTAVYYCTRFYSYTYWGQGTLVTVSS
VL: DIVMTQSPLSLPVTPGEPASISCRSSQSLVHSNRNTYLHWYQQKPGQAPRLLIYKVSNRFSGVPDRFSGSGSGTDFTLKISRVEAEDVGVYYCSQNTHVPPTFGQGTKLEIK
With B2, the binding result in data set [2] is on record as “binds”.

B3: H15L4: antibody combining heavy chain H15 (SEQ ID NO: 34) and light chain L4 (SEQ ID NO: 35) (antibody, V domains shown)
VH: QVQLVQSGAEVKKPGASVKVSCKASGYTFTDYEMHWIRQPPGQGLEWIGAIDPKTGDTAYSQKFKGRVTLTADKSTSTAYMELSSLTSEDTAVYYCTRFYSYTYWGQGTLVTVSS
VL: DIVMTQSPLSLPVTPGEPASISCRSSQSLVHSNRNTYLHWYQQKPGQAPRLLIYKVSNRFSGVPDRFSGSGSGTDFTLKISRVEAEDVGVYYCSQNTHVPPTFGQGTKLEIK
modifications: Modified antibody
As to B3, the “antigen binding activity compared with humanized H0L0 antibody” value in [3] is on record as “about the same”.

B4: hGC33: humanized anti-glypican 3 antibody, H chain variable region SEQ ID NO: 3, L chain SEQ ID NO: 4 (antibody, V domains shown)
VH: QVQLVQSGAEVKKPGASVKVSCKASGYTFTDYEMHWVRQAPGQGLEWMGALDPKTGDTAYSQKFKGRVTLTADKSTSTAYMELSSLTSEDTAVYYCTRFYSYTYWGQGTLVTVSS
VL: DVVMTQSPLSLPVTPGEPASISCRSSQSLVHSNGNTYLHWYLQKPGQSPQLLIYKVSNRFSGVPDRFSGSGSGTDFTLKISRVEAEDVGVYYCSQNTHVPPTFGQGTKLEIK
modifications: Modified antibody
For B4, in the data set on HuH-7 xenograft, the “tumor growth, single agent” value was “suppressed”.

B5: pH7pL16: pI modified humanized anti-glypican 3 antibody, pH7 (SEQ ID NO:31) and pL16 (SEQ ID NO:33) (antibody, V domains shown)
VH: QVQLVQSGAEVKKPGASVTVSCKASGYTFTDYEMHWIRQPPGEGLEWIGAIDPKTGDTAYSESFQDRVTLTADKSTSTAYMELSSLTSEDTAVYYCTRFYSYTYWGQGTLVTVSS
VL: DIVMTQSPLSLPVTPGEPASISCQASESLVHSNRNTYLHWYLQKPGQSPQLLIYKVSNRFSGVPDRFSGSGSGTDFTLKISRVEAEDVGVYYCSQNTHVPPTFGQGTKVEIE
modifications: Modified antibody
B5: the “thermal denaturation midpoint temperature of the Fabs” value in data set [4] is 74.7 °C. In [5], the “pI lower than that of Hd1.8Ld1.6 antibody by” value stood at 0.95 and the pI value is on record as 6.52. The “binding activity to glypican 3 compared with humanized H0L0 antibody” value in [3] (Reference Example 4) was “comparative”.

B6: Hd1.8Ld1.6: antibody composed of Hspd1.8 (SEQ ID NO: 27) and Lspd1.6 (SEQ ID NO: 29), lowered pI (antibody, V domains shown)
VH: QVQLVQSGAEVKKPGASVTVSCKASGYTFTDYEMHWIRQPPGEGLEWIGAIDPKTGDTAYSQSFQDRVTLTADKSTSTAYMELSSLTSEDTAVYYCTRFYSYTYWGQGTLVTVSS
VL: DIVMTQSPLSLPVTPGEPASISCRASESLVHSNRNTYLHWYQQKPGQAPRLLIYKVSNRFSGVPDRFSGSGSGTDFTLTISSLQAEDVGVYYCSQNTHVPPTFGQGTKLEIK
modifications: Modified antibody
Regarding B6, in [4], the “thermal denaturation midpoint temperature of the Fabs” value is 77.5 °C. In addition, the pI value is given as 7.47 in data set [5] and 7.4 in data set [6] (isoelectric electrophoresis, Phast-Gel Dry IEF). The “antigen binding activity compared with humanized H0L0 antibody” value in data set [3] was “about the same”. For the same molecule, in [6], the “reduction of pI relative to humanized H0L0 antibody” value is given as 1.5.

B7: Hspd1.8Lspd1.6 (Hd1.8Ld1.6) antibody (antibody, V domains shown)
VH: QVQLVQSGAEVKKPGASVTVSCKASGYTFTDYEMHWIRQPPGEGLEWIGAIDPKTGDTAYSQSFQDRVTLTADKSTSTAYMELSSLTSEDTAVYYCTRFYSYTYWGQGTLVTVSS
VL: DIVMTQSPLSLPVTPGEPASISCRASESLVHSNRNTYLHWYQQKPGQAPRLLIYKVSNRFSGVPDRFSGSGSGTDFTLTISSLQAEDVGVYYCSQNTHVPPTFGQGTKLEIK
Turning to B7, the binding result in data set [2] is on record as “binds”.
